From patent publication US20180335433A1 (LA JOLLA INSTITUTE FOR ALLERGY AND IMMUNOLOGY, published 2018)
Values belong to the binder of their own block, whether it stands above or below them.

Columns and labels:
[1] = molecular target: T1, SH3-inactivated (W97A) Lck (UniProt P06239 2-509, limits assumed); experiment: anti-Myc IP from stimulated JCam1.6 cells reconstituted with Lck W97A, immunoblot for Lck (FIG. 12)
T1 construct: whole, on cells; also called Lck W97A
Experimental: FIG. 12 Interaction between CD28 and the V3 of PKCθ is Lck-dependent. PKCθ-Lck-CD28 association in Lck-deficient (JCam1.6) Jurkat cells cotransfected with Myc-tagged PKCθ−V3 plus WT Lck or its indicated mutants, Transfected cells were stimulated with anti-CD3 and anti-CD28 for 5 min, immunoprecipitated with an anti-Myc Ab, and immunoblotted for Lck and endogenous CD28. Data are from three experiments.

[2] = molecular target: T2, CD28, endogenous in primary mouse CD4+ T cells (mouse, UniProt P31041 20-218); experiment: anti-CD28 co-IP, stimulated transduced PKCθ-/- T cells (FIG. 4c)
T2 construct: whole, on cells; Immunoprecipitated with anti-CD28 mAb from lysates of retrovirally transduced mouse T cells; also called murine CD28
T2 sequence (P31041 20-218): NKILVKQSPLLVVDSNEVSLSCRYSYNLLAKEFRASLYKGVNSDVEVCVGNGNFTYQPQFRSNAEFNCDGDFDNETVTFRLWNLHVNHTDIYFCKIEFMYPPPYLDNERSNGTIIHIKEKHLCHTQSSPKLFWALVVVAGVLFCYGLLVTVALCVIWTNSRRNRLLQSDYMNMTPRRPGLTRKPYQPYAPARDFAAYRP

T1 sequence (P06239 2-509 W97A limits assumed): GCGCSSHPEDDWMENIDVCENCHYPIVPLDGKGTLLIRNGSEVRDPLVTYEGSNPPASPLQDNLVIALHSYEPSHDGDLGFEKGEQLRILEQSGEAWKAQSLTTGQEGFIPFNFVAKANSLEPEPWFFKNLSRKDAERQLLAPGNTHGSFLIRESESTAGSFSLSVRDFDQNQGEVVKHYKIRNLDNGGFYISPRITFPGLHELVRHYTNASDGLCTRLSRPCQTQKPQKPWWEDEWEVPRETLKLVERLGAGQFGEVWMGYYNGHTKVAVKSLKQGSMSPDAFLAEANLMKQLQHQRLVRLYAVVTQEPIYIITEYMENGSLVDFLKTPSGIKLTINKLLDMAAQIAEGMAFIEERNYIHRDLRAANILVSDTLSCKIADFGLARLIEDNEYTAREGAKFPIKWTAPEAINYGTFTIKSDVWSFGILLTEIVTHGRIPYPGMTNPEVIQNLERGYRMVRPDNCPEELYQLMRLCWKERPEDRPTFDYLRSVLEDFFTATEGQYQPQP

binding result [1]: no binding
B1: Myc-tagged PKCθ V3 domain (aa 282-379 of human PKCθ, N-terminal Myc tag) (other)
chain: GINQKLMAEALAMIESTQQARCLRDTEQIFREGPVEIGLPCSIKNEARPPCLPTPGKREPQGISWESPLDEVDKMCHLPEPELNKERPSLQIKLKIED
notes: also called Myc-tagged V3; isolated V3 domain; not shown: N-terminal Myc tag of the pMIG vector

binding result [2]: no binding
B2: PKCθ P330/1/4/6A (4P-A; all four Pro residues of the PR motif mutated to alanine) (enzyme)
chain: MSPFLRIGLSNFDCGSCQSCQGEAVNPYCAVLVKEYVESENGQMYIQKKPTMYPPWDSTFDAHINKGRVMQIIVKGKNVDLISETTVELYSLAERCRKNNGKTEIWLELKPQGRMLMNARYFLEMSDTKDMNEFETEGFFALHQRRGAIKQAKVHHVKCHEFTATFFPQPTFCSVCHEFVWGLNKQGYQCRQCNAAIHKKCIDKVIAKCTGSAINSRETMFHKERFKIDMPHRFKVYNYKSPTFCEHCGTLLWGLARQGLKCDACGMNVHHRCQTKVANLCGINQKLMAEALAMIESTQQARCLRDTEQIFREGPVEIGLPCSIKNEARAACLATAGKREPQGISWESPLDEVDKMCHLPEPELNKERPSLQIKLKIEDFILHKMLGKGSFGKVFLAEFKKTNQFFAIKALKKDVVLMDDDVECTMVEKRVLSLAWEHPFLTHMFCTFQTKENLFFVMEYLNGGDLMYHIQSCHKFDLSRATFYAAEIILGLQFLHSKGIVYRDLKLDNILLDKDGHIKIADFGMCKENMLGDAKTNTFCGTPDYIAPEILLGQKYNHSVDWWSFGVLLYEMLIGQSPFHGQDEEELFHSIRMDNPFYPRWLEKEAKDLLVKLFVREPEKRLGVRGDIRQHPLFREINWEELERKEIDPPFRPKVKSPFDCSNFDKEFLNEKPRLSFADRALINSMDQNMFRNFSFMNPGMERLIS
